In patent publication US20220323495A1 (NATIONAL RESEARCH COUNCIL OF CANADA, published 2022):

B1: F269-3D12 anti-EGFRvIII monoclonal antibody (antibody, V domains shown)
VH: EVQLQQSGPELVKPGSSVRISCKASGYTFTDYNMDWVKQSHGKSLEWIGTINPNNGGTSYNQKFKGKATLTVDKSSSTAYMELRSLTSEDSAVYYCARVRQLGLWFAYWGQGTLVTVSA
VL: EIVLTQSPALMAASPGEKVTITCSVSSSISSSNLHWYQQKSETSPKPWIYGTSNLASGVPVRFSGSGSGTSYSLTISSMEAEDAATYYCQQWSSYPLTFGSGTKLEIK
notes: Mouse hybridoma IgG, tested as supernatant or Protein G purified mAb; also called 3D12-2
B2: F265-5B7 anti-EGFRvIII monoclonal antibody (antibody, V domains shown)
VH: QIQLVQSGPELKKPGETVMISCKASGYSFTNYGMNWVKQAPEKDLKWMGWINTYTGESRYVDEFKGRFAFSLETSVSIVYLKINNLKNEDMATYFCARGPNFDVWGTGTTVTVSS
VL: not shown
notes: Mouse hybridoma IgG, tested as supernatant or Protein G purified mAb; also called 5B7-2

Columns and labels:
[1] = target: T1, recombinant human EGFRvIII protein, denatured (human, UniProt P00533 298-623); experiment: ELISA on coated denatured recombinant antigen; Exp 2, purified mAb 1 µg/ml
T1 construct: Same protein as m9 after denaturation (95 °C for 5 min in PBS with 40 mM DTT); also called EGFRvIII Denatured
Description: (§1) Pre- and post-immune sera titers of animals were assessed by ELISA on recombinant EGFRvIII protein. Unless otherwise stated, all incubations were performed at room temperature. Briefly, half-area 96-well plates (Costar #3690) were coated with 25 μl per well of immunogen at 5 μg/ml in PBS and incubated overnight at 4° C. Microplates were washed three times in PBS and blocked for 30 min with PBS containing 1% bovine serum albumin (BSA, Sigma Cat#A7030). Blocking buffer was removed and 25 μl of serial dilutions of sera samples were added. After a 2-h incubation, microplates were washed 4 times with PBS-TWEEN™ 20 0.05% and 25 μl of a 1/5,000 dilution of alkaline phosphatase conjugated F(ab′)′₂ goat anti-mouse IgG (H+L, #115-056-062, Jackson Immunoresearch, Cedarlane, Burlington, ON) in blocking buffer was added. After a 1-h incubation, microplates were washed 4 times and 25 μl of p-nitrophenyl phosphate (pNPP) substrate (Sigma-Aldrich Canada Co., Oakville, ON) at 1 mg/ml in carbonate buffer at pH 9.6 was added and further incubated for 30 min. Absorbance was read at 405 nm using a SpectraMax 340 PC plate reader (Molecular Devices, Sunnyvale, Calif.).
(§2) To evaluate if monoclonal antibodies bind to a conformational epitope, an ELISA analysis on native and denatured recombinant human wild-type EGFR and EGFRvIII proteins were performed. […] Antigens at 1-2 mg/ml were denatured by incubation at 95° C. for 5 min in PBS containing DTT at 40 mM final concentration. They were then incubated on ice for 5 min and diluted at their final coating concentration for ELISA purpose.
(§3) mAbs were purified using HiTrap ProteinG HP 1 mL columns GE Healthcare cat no. 17-0404-01 and desalted using Zeba-spin desalting columns 5 mL (Pierce) pre-equilibrated in PBS and filter sterilized through […] membrane (Millipore). The final concentration of the antibody solutions was determined using a Nano-drop 2000 (ThermoScientific), using IgG as sample type. ELISA was performed as described above (serum titer determination) using 25 μl of mAb supernatant (Exp 1) or purified mAb at 1 μg/ml (Exp 2).

[2] = target: T2, recombinant human wild-type EGFR protein, denatured (human, UniProt P00533 25-645); experiment: as above
T2 construct: Same protein as m11 after denaturation (95 °C for 5 min in PBS with 40 mM DTT); also called EGFRwt Denatured
Description: as §1, §2, §3

[3] = target: T3, EGFRvIII amino acid residues 15 to 37 with Ser15 to Ala mutation, yeast-displayed (human, not fully specified); experiment: flow cytometry on yeast displaying the Ala-mutated 15-37 fragment; normalized to Myc-tag; wild-type fragment = 100%
T3 construct: The entry already carries the mutation
T3 peptide: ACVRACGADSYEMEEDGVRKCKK
Excerpt: (§4) Assessment of the binding of anti-EGFRvIII monoclonal antibodies to the fusion proteins expressed on yeast cell surface was done by flow cytometry analysis. Yeast cells were labeled with both the anti-EGFRvIII monoclonal antibody and chicken anti-Myc antibody the latter being used to monitor the level of expression of the fusion protein. Following a wash step, binding of the primary antibodies is probed by a two-color indirect fluorescence labeling using a specific mouse and chicken secondary antibodies for each of the primary antibody respectively.
(§5) To further characterize mAb epitopes within the EGFRvIII 15-37 region, an alanine scan of this region was performed, and modified fragments were expressed at the surface of the yeast. […] The resulting DNAs were expressed at the surface of the yeast and each anti-EGFRvIII mAbs was tested on the corresponding yeast mutant strain by flow cytometry analysis. The original Ala19 and Ala22 were not mutated. Thus, this assay determined the contribution of each amino acid(s) in mAb binding in comparison to the original wild-type fragment (SEQ ID NO:5) which is attributed the value of 100%.

[4] = target: T4, EGFRvIII amino acid residues 15 to 37 with Cys16 to Ala mutation, yeast-displayed (human, not fully specified); experiment: as above
T4 construct: The entry already carries the mutation
T4 peptide: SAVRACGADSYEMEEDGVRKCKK
Excerpt: as §4, §5

[5] = target: T5, EGFRvIII amino acid residues 15 to 37 with Ser24 to Ala mutation, yeast-displayed (human, not fully specified); experiment: as above
T5 construct: The entry already carries the mutation
T5 peptide: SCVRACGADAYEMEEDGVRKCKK
Excerpt: as §4, §5

[6] = target: T6, EGFRvIII amino acid residues 15 to 37 with Glu28 to Ala mutation, yeast-displayed (human, not fully specified); experiment: as above
T6 construct: The entry already carries the mutation
T6 peptide: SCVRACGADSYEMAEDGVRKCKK
Excerpt: as §4, §5

[7] = target: T7, EGFRvIII amino acid residues 15 to 37 with Glu29 to Ala mutation, yeast-displayed (human, not fully specified); experiment: as above
T7 construct: The entry already carries the mutation
T7 peptide: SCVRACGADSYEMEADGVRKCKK
Excerpt: as §4, §5

[8] = target: T8, EGFRvIII amino acid residues 15 to 37 with Asp30 to Ala mutation, yeast-displayed (human, not fully specified); experiment: as above
T8 construct: The entry already carries the mutation
T8 peptide: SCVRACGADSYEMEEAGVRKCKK
Excerpt: as §4, §5

[9] = target: T9, EGFRvIII amino acid residues 15 to 37 with Arg33 to Ala mutation, yeast-displayed (human, not fully specified); experiment: as above
T9 construct: The entry already carries the mutation
T9 peptide: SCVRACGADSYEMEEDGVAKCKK
Excerpt: as §4, §5

[10] = target: T10, EGFRvIII amino acid residues 15 to 37 with Lys36 to Ala mutation, yeast-displayed (human, not fully specified); experiment: as above
T10 construct: The entry already carries the mutation
T10 peptide: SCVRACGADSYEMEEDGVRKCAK
Excerpt: as §4, §5

[11] = target: T11, EGFRvIII amino acid residues 15 to 37 with Lys37 to Ala mutation, yeast-displayed (human, not fully specified); experiment: as above
T11 construct: The entry already carries the mutation
T11 peptide: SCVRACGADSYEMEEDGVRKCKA
Excerpt: as §4, §5

Binder	ELISA absorbance (405 nm) [1] [A405]	ELISA absorbance (405 nm) [2] [A405]	% of binding compared to the wild-type sequence [3] [%]	% of binding compared to the wild-type sequence [4] [%]	% of binding compared to the wild-type sequence [5] [%]	% of binding compared to the wild-type sequence [6] [%]	% of binding compared to the wild-type sequence [7] [%]	% of binding compared to the wild-type sequence [8] [%]	% of binding compared to the wild-type sequence [9] [%]	% of binding compared to the wild-type sequence [10] [%]	% of binding compared to the wild-type sequence [11] [%]
B1	0.517	0.001	90.2	171	233	71	47.7	78.5	22.1	95.1	162
B2	0.623	0	91.6	240	230	78.5	110	106	95.8	87.2	143
